{"source": "paper doi:10.1101/2022.11.08.515461", "about": "(bioRxiv, 2022)", "binders": {"B1": {"name": "Pac1-SNAP (natural protein)", "chain": "MTNWQQQLPLTDTQKNELDKSVLRYLNWNYKQTVRHEHAQDYESVRHAIVTLSGFLLQESVDRQEFISNNDTSNESMVDIDELLLPKKWNSIVRLQKKIIELEQNTETLVSQIKDLNTQVSELAQFKPTTSNGTSAHNVLKWIPRNLPSCLINVESSVTSVKLHPNLPIVFVATDHGKLYAFDLFNYTIPLASLQSHTKAITSMDVLFTNYTNSSKKNYLVIVTASKDLQIHVFKWVSEECKFQQIRSLLGHEHIVSAVKIWQKNNDVHIASCSRDQTVKIWDFHNGWSLKTFQPHSQWVRSIDVLGDYIISGSHDTTLRLTHWPSGNGLSVGTGHEFPIEKVKFIHFIEDSPEIRFRTPSTDRYKNWGMQYCVSASRDRTIKIWEIPLPTLMAHRAPIPNPTDSNFRCVLTLKGHLSWVRDISIRGQYLFSCADDKSVRCWDLNTGQCLHVWEKLHTGFVNCLDLDVDFDSNVTPRQMMVTGGLDCKSNVFMR", "modifications": "JF646-SNAP-tag ligand on the SNAP tag (fluorescent labelling)"}}, "biological_target": "yeast dynein_(MOTOR)^MT-B (microtubule-bound mutant of the motor domain) (budding yeast | T. thermophilus) (UniProt P34945)", "sequence (P34945 whole entry, change not shown, the tested form may be a part)": "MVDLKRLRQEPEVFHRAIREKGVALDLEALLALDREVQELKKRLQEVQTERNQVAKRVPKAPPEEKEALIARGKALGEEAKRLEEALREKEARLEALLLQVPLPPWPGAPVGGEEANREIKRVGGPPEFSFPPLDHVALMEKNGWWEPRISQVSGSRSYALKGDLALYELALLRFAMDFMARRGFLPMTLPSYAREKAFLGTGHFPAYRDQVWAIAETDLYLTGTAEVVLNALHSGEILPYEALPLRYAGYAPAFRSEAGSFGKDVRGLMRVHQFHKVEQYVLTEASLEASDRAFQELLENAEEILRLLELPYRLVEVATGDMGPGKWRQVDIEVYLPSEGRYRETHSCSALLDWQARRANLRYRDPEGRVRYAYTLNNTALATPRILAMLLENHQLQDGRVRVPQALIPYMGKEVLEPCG", "assay": "mass photometry", "data": [{"binder": "B1", "values": [{"measurement": "stoichiometry N (Pac1 dimer per dynein (MOTOR) monomer)", "result": 1}]}]}
